From patent US7012128B2, “Interaction between cyclin D1 and steroid receptor co-activators and uses thereof in assays” (TopoTarget UK Limited, priority 1998, dated 2006)

Tests used:
ER [1] = target: T1, ER (Homo sapiens, UniProt P03372); assay: Co-immunoprecipitation with ER from COS-7 cells; format: binding; parameters: expressed in transfected cells; host or cells: COS-7
T1 sequence (P03372 1-595): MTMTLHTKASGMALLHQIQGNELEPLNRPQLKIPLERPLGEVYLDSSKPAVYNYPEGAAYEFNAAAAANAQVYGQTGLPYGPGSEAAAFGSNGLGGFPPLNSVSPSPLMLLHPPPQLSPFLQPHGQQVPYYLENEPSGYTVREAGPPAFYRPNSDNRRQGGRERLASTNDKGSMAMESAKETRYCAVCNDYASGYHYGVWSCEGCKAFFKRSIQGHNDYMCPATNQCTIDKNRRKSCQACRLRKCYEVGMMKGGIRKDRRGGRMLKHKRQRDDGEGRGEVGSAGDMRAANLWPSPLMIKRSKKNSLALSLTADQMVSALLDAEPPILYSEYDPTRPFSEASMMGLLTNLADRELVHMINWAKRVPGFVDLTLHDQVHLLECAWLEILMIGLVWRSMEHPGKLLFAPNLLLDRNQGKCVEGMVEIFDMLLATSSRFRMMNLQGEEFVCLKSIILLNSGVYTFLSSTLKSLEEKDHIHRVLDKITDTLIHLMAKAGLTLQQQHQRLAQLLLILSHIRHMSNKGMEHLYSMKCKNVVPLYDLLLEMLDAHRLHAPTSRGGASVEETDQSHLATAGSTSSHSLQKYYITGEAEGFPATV
Source text: (§1) COS-7 cells were cotransfected with HA-tagged constructs encoding the nuclear receptor coactivators SRC-1, AIB-1 or p300 (Anzick et al., 1997; Chakravarti et al., 1996; Hanstein et al., 1996; Kamei et al., 1996; Onate et al., 1995) together with control plasmid, plasmids directing the synthesis of wild type cyclin D1 or D1 L254/255A mutant (D1-LALA). 12CA5 HA antibodies were used for immunoprecipitation of whole cell extracts prepared from these cells and co-immunoprecipitation of cyclin D1 (mutants) was examined by Western blot analysis using anti-cyclin D1 antibody. […] Precipitation with the anti-cyclin D1 antibody from the total lysate of the cells transfected with cyclin D1 and cyclin D1-LALA was similar. Binding of cyclin D1 and cyclin D1 L254/255A mutant to ER was then investigated. COS-7 cells were transfected with ER expression vector, cyclin D1 (mutant) and/or control plasmids. […] Differentially phosphorylated species of pRb were detected by Western blotting using the polyclonal pRb antibody (C15, Santa Cruz).
(§2) Cells were lysed in ELB containing 250 mM NaCl, 0.1% NP-40, 50 mM HEPES pH 7.0, 5 mM EDTA and protease inhibitors. […] After blocking with PBS containing 5% milk and 0.1% Tween-20, proteins were detected with monoclonal antibodies directed against cyclin D1 (DCS-6, Neomarkers) and peroxidase-conjugated goat anti-mouse IgG. […]

pRb = assay: Phosphorylation of pRb in Rb-/- 3T3 cells; format: cell-based; settings: cells that lack cyclin D1-associated kinase activity, low serum
Source text: as §1, with “plasmids. Monoclonal ER antibodies were used for immunoprecipitation of ER of whole cell extracts prepared from these cells and co-immunoprecipitation of cyclin D1 (mutant) was examined by Western blot analysis using monoclonal cyclin D1 antibodies. […] The activity of cyclin D1 and D1 L254/255A mutant in phosphorylation of pRb in Rb^−/− 3T3 cells was also investigated.” for “plasmids.”

ER [2] = target: T1, ER; assay: ER activation, ERE-reporter gene, in MCF-7 cells; format: cell-based; parameters: T47D and MCF-7, which contain endogenous wild type ER; endogenous in cells; host or cells: MCF-7; T47D; settings: MCF-7, relative high levels of cyclin D1; 17β-estradiol enriched medium
Source text: (§3) The ER-containing T47D and MCF-7 breast cancer cells were maintained in 17β-estradiol enriched medium with 10%fetal calf serum after cotransfection with a cyclin D1 L254/255A mutant expression vector and an ERE-reporter gene for testing its effect on ER activation (left panel). ER transactivation in the absence of co-expression of the cyclin D1 mutant was set at 100%.
(§4) To get more insight in the role of cyclin D1 in ER transactivation in breast cancers with elevated levels of cyclin D1, we have tested the effect of the mutant cyclin D1 L254/255A on ER activation in two different breast cancer cell lines. This cyclin D1 mutant does bind to ER, but fails both to interact with SRC-1 as shown above and consequently fails to activate ER (FIG. 1B). Therefore, this mutant can act as a dominant negative in cyclin D1-mediated ER transactivation as it binds to ER and fails to recruit coactivators. We tested the effect of this cyclin D1 mutant on ER activation in two breast cancer cell lines, T47D and MCF-7, which contain endogenous wild type ER, but differ in their cyclin D1 protein levels (FIG. 6). […] In contrast, in MCF-7, which contain relative high levels of cyclin D1 (FIG. 6), the cyclin D1 mutant inhibited up to 50% of ER activity. Thus, this dominant negative cyclin D1 mutant preferentially interferes with ER activation in breast cancer cells that have high levels of cyclin D1 protein.

ER [3] = target: T1, ER; assay: ER activation, ERE-reporter gene, in T47D cells; format: cell-based; parameters: T47D and MCF-7, which contain endogenous wild type ER; endogenous in cells; host or cells: MCF-7; T47D; settings: relative low levels of cyclin D1, 17β-estradiol enriched medium
Source text: as §3, §4

[4] = test system: SRC family proteins (SRC-1, AIB-1); assay: Co-immunoprecipitation with HA-tagged coactivators from COS-7 cells; format: binding; settings: absence of 17β-estradiol
Source text: as §1, §2

In the case of “Cyclin D1-LALA: cyclin D1 mutant in which leucines 254 and 255 were mutated to alanines; dominant negative”, the “ability to bind ER” value (ER [1]) is reported as “unaffected”, the “ability to phosphorylate pRb” value (pRb) is reported as “unaffected” and the “inhibition of ER activity” value (ER [2]) is reported as “up to 50%”. For the same substance, the “inhibition of ER activity” value (ER [3]) was “slight inhibition” and the “interaction with SRC family proteins” value [4] was “did not interact”.
